target: human MET (c-Met, hepatocyte growth factor receptor), endogenous on human cell lines (human, UniProt P08581 25-1390); test: cell-based or functional assay
Wherever % Inhibition (HEK293/SRE-Luc Blocking Activity, 1 h mAb pre-bind) is given: test concentration or dose not given here.

human MET (c-Met, hepatocyte growth factor receptor), endogenous on human cell lines, sequence (P08581 25-1390 limits assumed, form in doubt): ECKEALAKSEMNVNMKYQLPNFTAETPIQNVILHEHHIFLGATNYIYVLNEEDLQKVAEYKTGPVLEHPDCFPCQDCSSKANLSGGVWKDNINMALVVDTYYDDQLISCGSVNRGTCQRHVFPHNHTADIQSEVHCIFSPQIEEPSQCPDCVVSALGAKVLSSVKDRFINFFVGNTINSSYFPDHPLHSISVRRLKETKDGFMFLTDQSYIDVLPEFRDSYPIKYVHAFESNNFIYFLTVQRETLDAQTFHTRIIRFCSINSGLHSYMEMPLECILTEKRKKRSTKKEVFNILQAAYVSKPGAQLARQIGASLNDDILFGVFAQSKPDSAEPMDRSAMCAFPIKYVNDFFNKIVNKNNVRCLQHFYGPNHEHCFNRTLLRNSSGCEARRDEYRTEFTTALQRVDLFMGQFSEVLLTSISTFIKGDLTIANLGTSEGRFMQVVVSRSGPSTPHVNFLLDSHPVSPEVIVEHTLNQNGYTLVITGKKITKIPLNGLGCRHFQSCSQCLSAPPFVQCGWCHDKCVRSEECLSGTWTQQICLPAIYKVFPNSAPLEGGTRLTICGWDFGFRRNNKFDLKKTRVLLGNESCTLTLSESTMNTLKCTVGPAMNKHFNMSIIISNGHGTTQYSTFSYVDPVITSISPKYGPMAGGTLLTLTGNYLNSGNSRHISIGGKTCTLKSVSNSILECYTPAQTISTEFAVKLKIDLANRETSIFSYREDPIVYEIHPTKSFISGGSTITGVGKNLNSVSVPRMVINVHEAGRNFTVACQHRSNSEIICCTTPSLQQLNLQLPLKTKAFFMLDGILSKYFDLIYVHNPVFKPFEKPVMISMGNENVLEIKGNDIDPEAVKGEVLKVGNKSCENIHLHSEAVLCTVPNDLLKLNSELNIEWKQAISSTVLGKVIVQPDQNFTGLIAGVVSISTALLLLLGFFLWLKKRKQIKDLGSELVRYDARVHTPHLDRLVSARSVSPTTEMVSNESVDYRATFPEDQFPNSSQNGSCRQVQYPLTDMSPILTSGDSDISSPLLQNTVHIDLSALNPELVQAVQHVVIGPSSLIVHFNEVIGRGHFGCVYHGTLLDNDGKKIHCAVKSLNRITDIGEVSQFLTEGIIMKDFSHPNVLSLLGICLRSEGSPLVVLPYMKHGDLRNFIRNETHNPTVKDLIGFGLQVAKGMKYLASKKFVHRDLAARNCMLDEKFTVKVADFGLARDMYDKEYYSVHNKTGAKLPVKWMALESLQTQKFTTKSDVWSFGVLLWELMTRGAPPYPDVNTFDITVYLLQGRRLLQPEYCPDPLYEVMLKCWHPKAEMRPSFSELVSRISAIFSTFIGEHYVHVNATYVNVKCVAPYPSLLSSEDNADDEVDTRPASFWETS

| % Inhibition (HEK293/SRE-Luc Blocking Activity, 1 h mAb pre-bind) | EC50 (Ligand (HGF)-Independent HEK293/SRE-Luc Activation) | Fold Response (Ligand (HGF)-Independent HEK293/SRE-Luc Activation) | IC50 (HEK293/SRE-Luc Blocking Activity, 1 h mAb pre-bind) | Binder |
| --- | --- | --- | --- | --- |
| 79% | 5.9 nM | 2.6 fold | 1.1 nM | H4H14638D (bispecific antibody, human IgG4, V domains shown) VH 1: QVQLVESGGGVVQPGRSLRLSCAASGFTFSNFGMHWVRQAPGKGLEWVAGIWFDGSNKNYIDSVKGRFTISRDNSKNTLYLQMNSLRAEDTAVYYCAREGYDSGTDYIPYDIFDIWGQGTMVTVSS VH 2: EVQLVESGGGLVQPGGSLRLSCAASGFIVTTNYMTWLRQAPGKGLEWVSLIYSSGHTYYADSVKGRFTISRHNSKNTLYLQMDSLRAEDTAVYYCASAFAADVFDIWGQGTMVTVSS VL: not shown |
| 74% | 0.28 nM | 2.8 fold | – | H4H14636D (bispecific antibody, human IgG4, V domains shown) VH 1: EVQLVESGGGLVQPGGSLRLSCAASGFIFSNYEMNWVRQAPGKGLEWISYITSSGNMKYYADSVKGRFTISRDNDKNSLYLQMSSLRVEDTAVYYCVRGGRFLEWLTYYVMVVWGQGTTVTVSS VH 2: EVQLVESGGGLVQPGGSLRLSCAASGFIVTTNYMTWLRQAPGKGLEWVSLIYSSGHTYYADSVKGRFTISRHNSKNTLYLQMDSLRAEDTAVYYCASAFAADVFDIWGQGTMVTVSS VL: not shown |
| 75% | 84 nM | 4.4 fold | 2.7 nM | H4H14641D (bispecific antibody, human IgG4, V domains shown) VH 1: QVQLVESGGGVVQPGRSLRLSCSASGFSFSHFGMHWVRQVPGGGLEWVTSIWFDGSNRYYADSLKGRFTISRDNSKNTLYLEMNSLRAEDTAVYYCVREGILGTTNPYDVFDVWGQGTMVTVSS VH 2: EVQLVESGGGLVQPGGSLRLSCAASGFIVTTNYMTWLRQAPGKGLEWVSLIYSSGHTYYADSVKGRFTISRHNSKNTLYLQMDSLRAEDTAVYYCASAFAADVFDIWGQGTMVTVSS VL: not shown |
| 81% | 1 nM | 4.3 fold | 0.52 nM | H4H16445D (bispecific antibody, human IgG4, V domains shown) VH 1: QVQLVESGGGVVQPGGSLRLSCAASGFTFSGYGMHWVRQAPGKGLEWMAVIWYDGSNDYYPDSVKGRFTISRDNSKNTLYLQMNSLRVEDTAVYYCARDAWDLLRSFDYWGQGTLVTVSS VH 2: EVQLVESGGGLVQPGGSLRLSCAASGFIVTTNYMTWLRQAPGKGLEWVSLIYSSGHTYYADSVKGRFTISRHNSKNTLYLQMDSLRAEDTAVYYCASAFAADVFDIWGQGTMVTVSS VL: not shown |
| 73% | 4.1 nM | 2.1 fold | – | H4H14637D (bispecific antibody, human IgG4, V domains shown) VH 1: QVQLVESGGGVVQPGTSLRLSCVASGFTFRNFGMHWVRQAPGKGLEWVANIWFDGSNENYVESIQGRFTISRDNSKNTLNLQMNSLRAEDSAVYYCVREGILGTTNPYDAFDVWGQGTMVTVSS VH 2: EVQLVESGGGLVQPGGSLRLSCAASGFIVTTNYMTWLRQAPGKGLEWVSLIYSSGHTYYADSVKGRFTISRHNSKNTLYLQMDSLRAEDTAVYYCASAFAADVFDIWGQGTMVTVSS VL: not shown |
| 83% | 1.4 nM | 4 fold | 1 nM | H4H16446D (bispecific antibody, human IgG4, V domains shown) VH 1: QVQLVESGGGVVQPGRSLRLSCAVSGFTFSSYGMHWVRQAPGKGLEWVANIWYDGTNDYYPYSVKGRFTISRDNSQNTLYLQMNSLRAEDTAVYYCAREDFINYRSFDYWGQGTLVTVSS VH 2: EVQLVESGGGLVQPGGSLRLSCAASGFIVTTNYMTWLRQAPGKGLEWVSLIYSSGHTYYADSVKGRFTISRHNSKNTLYLQMDSLRAEDTAVYYCASAFAADVFDIWGQGTMVTVSS VL: not shown |

Reference: US20180134794A1 (Regeneron, published 2018)
